Assay results: patent KR20220012826A (dated 2022)
Like-named read-outs stand apart in the source and are kept apart here.

Experiments:
[1] = biological target: T1, SARS-CoV-2 spike D614, on pseudovirus (SARS-CoV-2, UniProt P0DTC2 14-1273); assay: cell-based or functional assay
[2] = biological target: T1, SARS-CoV-2 spike D614, on pseudovirus; assay: cell-based or functional assay; remark: listed apart in the source
[3] = biological target: T1, SARS-CoV-2 spike D614, on pseudovirus; assay: cell-based or functional assay; remark: listed apart in the source
SARS-CoV S1 = SARS-CoV S1 (SARS-CoV, UniProt P59594 14-667); assay: Octet (BLI) specificity, Fig. 12
MERS-CoV RBD = biological target: T2, MERS-CoV RBD (MERS-CoV, UniProt K9N5Q8 367-606); assay: Octet (BLI) specificity, Fig. 12
T2 sequence: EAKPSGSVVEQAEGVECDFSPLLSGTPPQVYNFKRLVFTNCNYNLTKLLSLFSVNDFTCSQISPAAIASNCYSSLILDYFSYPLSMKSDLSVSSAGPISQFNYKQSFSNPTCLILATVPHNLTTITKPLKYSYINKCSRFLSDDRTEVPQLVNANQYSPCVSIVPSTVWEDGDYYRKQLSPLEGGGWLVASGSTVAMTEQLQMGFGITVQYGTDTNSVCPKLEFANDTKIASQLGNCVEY

B1: No. 139 항체 (Full IgG) (antibody, V domains shown)
VH: QITLKESGPTLVKPTQTLTLTCSFSGFSLSTSGVGVGWIRQPPGKALEWLALIDWDDNKYHTTSLKTRLTISKDTSKNQVVLTMTNMDPVDTATYYCARIPGFLRYRNRYYYYGMDVWGQGTTVTVSS
VL: ELVLTQPPSVSAAPGQKVTISCSGSSSNIGNNYVSWYQQLPGTAPKLLIYDNNKRPSGIPDRFSGSKSGTSATLGITGLQTGDEADYYCGTWDSSLSAGVFGGGTELTVL
notes: also called CT-P59; Regdanvimab
B1 was tested, and the “pseudovirus 중화능 IC50” value [1] was 0.378 ng/mL, the “pseudovirus 중화능 IC50” value [2] was 0.35 ng/mL and the “pseudovirus 중화능 IC50” value [3] was 0.535 ng/mL. B1: no binding (SARS-CoV S1); no binding (MERS-CoV RBD).
